These results are taken from PMC12808100, “The non-catalytic DNA polymerase ε subunit is an NPF motif recognition protein” (Nature Communications, 2025).

The target in assay [1] is His6-avi-MBP-tagged POLE2. Nature of the assay: Single-point nHU-MS with recombinant His6-avi-MBP-POLE2 bait, Jurkat extract. As to conditions: significant apparent affinity of endogenous prey protein for POLE2 bait; single-point nHU-MS; Figure S11. It counts as binding, human. The source says: So far, our study only focused on a few hand-picked NPF motifs and studied them as short synthetic peptides. However, many other proteins may be present in the proteome that could bind to POLE2 and their putative NPF motifs are embedded in their natural structures that can greatly affect their binding properties. To investigate interactions between POLE2 and intact, full length proteins proteome-wide, we used nHU-MS experiments with recombinant His6-avi-MBP-tagged POLE2 as bait and purified His6-avi-MBP as a control. Even though we are aware that this recombinant POLE2 may bind to NPF motifs with a somewhat altered affinity, we assumed that this would affect all NPF motif-mediated interactions equally, allowing an unbiased affinity ranking of all identified partners. Single point nHU measurements were performed at 26 μM POLE2 concentration and the recovered supernatant was measured by label free proteomic MS measurements (Fig. 3A, Supplementary Figs. 8A, 9, Supplementary Data 1).
Single-point nHU experiments with protein baits were carried out nearly identically with two key modifications. First, the resin saturation step was carried out by mixing 50 μl streptavidin resin with 0.5−1 ml 50 μM biotinylated protein solution and the mixture was incubated for 1.5 h at 4 °C with constant agitation. Second, instead of using estimated bait concentrations, we measured it experimentally. An extra aliquot of resin stock was prepared alongside the nHU samples that were identically processed that were used to eluate the immobilized proteins under harsh conditions, in order to experimentally quantify the Cbait by using densitometry of Coomassie stained SDS-PAGE that included a protein calibration series. For this, 50 μl bait-saturated resin aliquots were mixed with 200 μl 4x Laemmli Sample Buffer (120 mM Tris-HCl pH 7, 8% SDS, 100 mM DTT, 32% glycerol, 0.004% bromphenol blue, 1% β-mercaptoethanol), instead of cell extract. After 15 min incubation at 95 °C, these samples were analyzed by SDS-PAGE using protein calibration standard, made from recombinant MBP. Densitometry was carried out after Coomassie staining on raw Tif images by using Fiji ImageJ 1.53c and experimental bait concentration were determined by adjusting for molecular weight differences between MBP and MBP-POLE2 constructs.
Samples were digested overnight at 37 °C.

For another assay, the system named is POLE2 S522A. Nature of the assay: Proximity labeling MS, POLE2 S522A. As to conditions: bait POLE2_S522A.
The subject of the next assay is POLE2 E520A. Description: Proximity labeling MS, POLE2 E520A. Conditions: bait POLE2_E520A.
The next assay relates to POLE2 WT. Description: Proximity labeling MS, MAC3-tagged POLE2 WT in Flp-In T-REx 293 cells. It counts as cell-based, human. As to conditions: bait POLE2_WT.
The next assay deals with POLE2 Y311F. Description: Proximity labeling MS, POLE2 Y311F. Conditions: bait POLE2_Y311F.

B1: IVD (protein, UniProt P26440 33-426, looked up)
Isovaleryl-CoA dehydrogenase, …: HSLLPVDDAINGLSEEQRQLRQTMAKFLQEHLAPKAQEIDRSNEFKNLREFWKQLGNLGVLGITAPVQYGGSGLGYLEHVLVMEEISRASGAVGLSYGAHSNLCINQLVRNGNEAQKEKYLPKLISGEYIGALAMSEPNAGSDVVSMKLKAEKKGNHYILNGNKFWITNGPDADVLIVYAKTDLAAVPASRGITAFIVEKGMPGFSTSKKLDKLGMRGSNTCELIFEDCKIPAANILGHENKGVYVLMSGLDLERLVLAGGPLGLMQAVLDHTIPYLHVREAFGQKIGHFQLMQGKMADMYTRLMACRQYVYNVAKACDEGHCTAKDCAGVILYSAECATQVALDGIQCFGGNGYINDFPMGRFLRDAKLYEIGAGTSEVRRLVIGRAFNADFH
B1: the pKapp_sign in assay [1] is on record as 4.276.

B2: PYGB (protein, UniProt P11216 2-843, looked up)
Glycogen phosphorylase, brain …: AKPLTDSEKRKQISVRGLAGLGDVAEVRKSFNRHLHFTLVKDRNVATPRDYFFALAHTVRDHLVGRWIRTQQHYYERDPKRIYYLSLEFYMGRTLQNTMVNLGLQNACDEAIYQLGLDLEELEEIEEDAGLGNGGLGRLAACFLDSMATLGLAAYGYGIRYEFGIFNQKIVNGWQVEEADDWLRYGNPWEKARPEYMLPVHFYGRVEHTPDGVKWLDTQVVLAMPYDTPVPGYKNNTVNTMRLWSAKAPNDFKLQDFNVGDYIEAVLDRNLAENISRVLYPNDNFFEGKELRLKQEYFVVAATLQDIIRRFKSSKFGCRDPVRTCFETFPDKVAIQLNDTHPALSIPELMRILVDVEKVDWDKAWEITKKTCAYTNHTVLPEALERWPVSMFEKLLPRHLEIIYAINQRHLDHVAALFPGDVDRLRRMSVIEEGDCKRINMAHLCVIGSHAVNGVARIHSEIVKQSVFKDFYELEPEKFQNKTNGITPRRWLLLCNPGLADTIVEKIGEEFLTDLSQLKKLLPLVSDEVFIRDVAKVKQENKLKFSAFLEKEYKVKINPSSMFDVHVKRIHEYKRQLLNCLHVVTLYNRIKRDPAKAFVPRTVMIGGKAAPGYHMAKLIIKLVTSIGDVVNHDPVVGDRLKVIFLENYRVSLAEKVIPAADLSQQISTAGTEASGTGNMKFMLNGALTIGTMDGANVEMAEEAGAENLFIFGLRVEDVEALDRKGYNAREYYDHLPELKQAVDQISSGFFSPKEPDCFKDIVNMLMHHDRFKVFADYEAYMQCQAQVDQLYRNPKEWTKKVIRNIACSGKFSSDRTITEYAREIWGVEPSDLQIPPPNIPRD
For the molecule B2, the pKapp_sign in assay [1] was 4.228.

B3: ATAD3A (protein, UniProt Q9NVI7 2-586, looked up)
ATPase family AAA …: SWLFGINKGPKGEGAGPPPPLPPAQPGAEGGGDRGLGDRPAPKDKWSNFDPTGLERAAKAARELEHSRYAKDALNLAQMQEQTLQLEQQSKLKEYEAAVEQLKSEQIRAQAEERRKTLSEETRQHQARAQYQDKLARQRYEDQLKQQQLLNEENLRKQEESVQKQEAMRRATVEREMELRHKNEMLRVEAEARARAKAERENADIIREQIRLKAAEHRQTVLESIRTAGTLFGEGFRAFVTDWDKVTATVAGLTLLAVGVYSAKNATLVAGRFIEARLGKPSLVRETSRITVLEALRHPIQVSRRLLSRPQDALEGVVLSPSLEARVRDIAIATRNTKKNRSLYRNILMYGPPGTGKTLFAKKLALHSGMDYAIMTGGDVAPMGREGVTAMHKLFDWANTSRRGLLLFVDEADAFLRKRATEKISEDLRATLNAFLYRTGQHSNKFMLVLASNQPEQFDWAINDRINEMVHFDLPGQEERERLVRMYFDKYVLKPATEGKQRLKLAQFDYGRKCSEVARLTEGMSGREIAQLAVSWQATAYASEDGVLTEAMMDTRVQDAVQQHQQKMCWLKAEGPGRGDEPSPS
Turning to B3, the pKapp_sign in assay [1] was 4.126.

B4: NUP35 (protein, UniProt Q8NFH5 1-326, looked up)
Nucleoporin NUP35: MAAFAVEPQGPALGSEPMMLGSPTSPKPGVNAQFLPGFLMGDLPAPVTPQPRSISGPSVGVMEMRSPLLAGGSPPQPVVPAHKDKSGAPPVRSIYDDISSPGLGSTPLTSRRQPNISVMQSPLVGVTSTPGTGQSMFSPASIGQPRKTTLSPAQLDPFYTQGDSLTSEDHLDDSWVTVFGFPQASASYILLQFAQYGNILKHVMSNTGNWMHIRYQSKLQARKALSKDGRIFGESIMIGVKPCIDKSVMESSDRCALSSPSLAFTPPIKTLGTPTQPGSTPRISTMRPLATAYKASTSDYQVISDRQTPKKDESLVSKAMEYMFGW
Take B4: the pKapp_sign in assay [1] came to 4.141.

B5: URM1 (protein, UniProt Q9BTM9 1-101, looked up)
Ubiquitin-related modifier 1: MAAPLSVEVEFGGGAELLFDGIKKHRVTLPGQEEPWDIRNLLIWIKKNLLKERPELFIQGDSVRPGILVLINDADWELLGELDYQLQDQDSVLFISTLHGG
On to B5, for which, in assay [1], the pKapp_sign was 4.219.

B6: ASPA (protein, UniProt P45381 1-313, looked up)
Aspartoacylase: MTSCHIAEEHIQKVAIFGGTHGNELTGVFLVKHWLENGAEIQRTGLEVKPFITNPRAVKKCTRYIDCDLNRIFDLENLGKKMSEDLPYEVRRAQEINHLFGPKDSEDSYDIIFDLHNTTSNMGCTLILEDSRNNFLIQMFHYIKTSLAPLPCYVYLIEHPSLKYATTRSIAKYPVGIEVGPQPQGVLRADILDQMRKMIKHALDFIHHFNEGKEFPPCAIEVYKIIEKVDYPRDENGEIAAIIHPNLQDQDWKPLHPGDPMFLTLDGKTIPLGGDCTVYPVFVNEAAYYEKKEAFAKTTKLTLNAKSIRCCLH
Regarding B6, the pKapp_sign in assay [1] was determined as 5.902.

B7: SEC14L4 (protein, UniProt Q9UDX3 1-406, looked up)
SEC14-like protein 4: MSSRVGDLSPQQQEALARFRENLQDLLPILPNADDYFLLRWLRARNFDLQKSEDMLRRHMEFRKQQDLDNIVTWQPPEVIQLYDSGGLCGYDYEGCPVYFNIIGSLDPKGLLLSASKQDMIRKRIKVCELLLHECELQTQKLGRKIEMALMVFDMEGLSLKHLWKPAVEVYQQFFSILEANYPETLKNLIVIRAPKLFPVAFNLVKSFMSEETRRKIVILGDNWKQELTKFISPDQLPVEFGGTMTDPDGNPKCLTKINYGGEVPKSYYLCEQVRLQYEHTRSVGRGSSLQVENEILFPGCVLRWQFASDGGDIGFGVFLKTKMGEQQSAREMTEVLPSQRYNAHMVPEDGSLTCLQAGVYVLRFDNTYSRMHAKKLSYTVEVLLPDKASEETLQSLKAMRPSPTQ
For the molecule B7, the pKapp_sign in assay [1] came out at 5.194.

B8: ABT1 (protein, UniProt Q9ULW3 1-272, looked up)
Activator of basal …: MEAEESEKAATEQEPLEGTEQTLDAEEEQEESEEAACGSKKRVVPGIVYLGHIPPRFRPLHVRNLLSAYGEVGRVFFQAEDRFVRRKKKAAAAAGGKKRSYTKDYTEGWVEFRDKRIAKRVAASLHNTPMGARRRSPFRYDLWNLKYLHRFTWSHLSEHLAFERQVRRQRLRAEVAQAKRETDFYLQSVERGQRFLAADGDPARPDGSWTFAQRPTEQELRARKAARPGGRERARLATAQDKARSNKGLLARIFGAPPPSESMEGPSLVRDS
Consider B8, for which the AvgSpec in the assay on POLE2 S522A (mean of 3 replicates) worked out at 14.33; in the assay on POLE2 E520A (mean of 3 replicates) it was 9.33; in the assay with POLE2 WT (mean of 6 replicates), 7.33; with POLE2 Y311F (mean of 3 replicates), 9.67. The Spec was found to be 12 in the assay with POLE2 S522A (replicate 1); 14 with POLE2 S522A (replicate 2); 17 with POLE2 S522A (replicate 3); 14 in the assay on POLE2 E520A (replicate 1); 7 in the assay with POLE2 E520A (replicate 2); 7 in the assay with POLE2 E520A (replicate 3). The Spec in the assay on POLE2 WT (replicate 1) turned out to be 9; in the assay on POLE2 WT (replicate 2), 11; with POLE2 WT (replicate 3), 13; in the assay on POLE2 WT (replicate 4), 4; in the assay on POLE2 WT (replicate 5) it was 2; in the assay with POLE2 WT (replicate 6), 5. Moreover, the Spec with POLE2 Y311F (replicate 1) turned out to be 11; with POLE2 Y311F (replicate 2), 8; in the assay on POLE2 Y311F (replicate 3) it was 10. Moreover, the SpecSum with POLE2 S522A (sum of 3 replicates) is reported as 43; in the assay on POLE2 E520A (sum of 3 replicates), 28; in the assay on POLE2 WT (sum of 6 replicates) it was 44; with POLE2 Y311F (sum of 3 replicates) it was 29. The FoldChange came to 11.82 in the assay on POLE2 S522A (versus control counts), 7.7 in the assay with POLE2 E520A (versus control counts), 6.05 in the assay on POLE2 WT (versus control counts) and 7.97 in the assay on POLE2 Y311F (versus control counts).
